Experimental data taken from publication PMC4402209.

Molecular target: KCTD12 (UniProt Q6WVG3)
Assay: anti-Rluc IP of Rluc-KCTD12, GB2 blot
Conditions: reference: GB2-WT, no 8-Br-cAMP; sites S892

With “GABAB2 (GB2) (from UniProt O88871) GB2-WT, 8-Br-cAMP 1 mM 30 min” as the substance, how does the percent of reference read?
Its percent of reference is 103%.
